This passage reports Kd, binding result and stoichiometry N results from publication PMC2764441.

Several values for one entry are separate records, joined by “and”; a condition that tells them apart may be missing. Equal values may be shown once.

The target in data set [1] is NF-kB p65 homodimer, murine (mouse, UniProt Q04207 19-306). As to the kind of experiment: EMSA. (In general: A gel shift assay detects complexes by their altered migration in electrophoresis.)
In data set [2] the target is NF-kB p65 homodimer, human (human, UniProt Q04206 19-306). As to the kind of experiment: EMSA.
Data set [3] has as its target T1, NF-κB p50 (recombinant human p50) (human), P19838.
T1 chain: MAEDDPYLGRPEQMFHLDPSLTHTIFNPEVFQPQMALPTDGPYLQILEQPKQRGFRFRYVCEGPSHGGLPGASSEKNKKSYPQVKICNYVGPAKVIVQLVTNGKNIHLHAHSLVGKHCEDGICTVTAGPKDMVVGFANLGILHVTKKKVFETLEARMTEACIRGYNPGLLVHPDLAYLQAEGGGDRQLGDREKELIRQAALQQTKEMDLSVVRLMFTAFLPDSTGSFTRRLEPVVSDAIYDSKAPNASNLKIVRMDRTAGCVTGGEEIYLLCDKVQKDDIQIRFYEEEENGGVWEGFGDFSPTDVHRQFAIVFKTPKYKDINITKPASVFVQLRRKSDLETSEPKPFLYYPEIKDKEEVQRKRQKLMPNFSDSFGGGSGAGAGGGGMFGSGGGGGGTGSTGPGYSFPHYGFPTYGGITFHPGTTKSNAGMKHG
As to the kind of experiment: cross-linking. Conditions: remark: other sources report otherwise.

Data set [4] addresses T2, NF-κB p65 (recombinant p65) (not stated (human or murine protein purified)), Q04207.
T2 chain: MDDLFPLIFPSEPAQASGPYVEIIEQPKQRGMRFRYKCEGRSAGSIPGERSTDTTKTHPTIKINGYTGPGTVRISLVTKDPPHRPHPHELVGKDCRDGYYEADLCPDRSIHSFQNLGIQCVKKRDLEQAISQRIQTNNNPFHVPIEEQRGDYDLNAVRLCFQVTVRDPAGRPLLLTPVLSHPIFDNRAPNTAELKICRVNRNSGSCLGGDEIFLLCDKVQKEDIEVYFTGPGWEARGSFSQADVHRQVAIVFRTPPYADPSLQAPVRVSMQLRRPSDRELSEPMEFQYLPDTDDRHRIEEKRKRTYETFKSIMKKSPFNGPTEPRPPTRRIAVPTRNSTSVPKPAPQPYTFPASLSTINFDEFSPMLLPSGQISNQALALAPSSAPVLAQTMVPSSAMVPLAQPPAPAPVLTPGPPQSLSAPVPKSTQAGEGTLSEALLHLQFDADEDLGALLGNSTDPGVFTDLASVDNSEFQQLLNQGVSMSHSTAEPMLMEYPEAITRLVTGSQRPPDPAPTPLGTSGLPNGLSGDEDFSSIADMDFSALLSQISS
The data set can be described thus: cross-linking. To be noted: remark: other sources report otherwise.

Chain of NF-kB p65 homodimer, human (Q04206 19-306): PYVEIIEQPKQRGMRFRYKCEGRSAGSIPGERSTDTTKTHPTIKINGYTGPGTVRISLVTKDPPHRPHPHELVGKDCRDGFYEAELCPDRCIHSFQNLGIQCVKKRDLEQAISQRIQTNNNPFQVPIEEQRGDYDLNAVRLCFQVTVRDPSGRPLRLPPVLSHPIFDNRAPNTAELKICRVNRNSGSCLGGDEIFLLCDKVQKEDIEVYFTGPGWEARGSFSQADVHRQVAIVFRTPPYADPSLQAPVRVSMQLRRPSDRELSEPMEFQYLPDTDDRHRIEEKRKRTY

B1: R1 anti-p65 RNA aptamer (structured_RNA)
RNA: GAAGCUUACAAGAAGGACAGCACGAAUAAAACCUGCGUAAAUCCGCCCCAUUUGUGUAAGGGUAGUGGGUCGAAUUCCGCUCA
With B1, the Kd in data set [1] was 38 ± 20 nM. In addition, in data set [2], the binding result is “binds”.

B2: NF-κB p50 (recombinant human p50), P19838 1-433 (natural protein)
chain: T1 chain
As for B2, in data set [3], the stoichiometry N is 2 and 4.

B3: NF-κB p65 (recombinant p65), Q04207 1-549 (natural protein)
chain: T2 chain
As to B3, the stoichiometry N in data set [4] came out at 2.

A word on the Kd: it is a measure of binding affinity in units of concentration. A higher Kd goes with weaker binding. One may read the stoichiometry N as a count of units in the complex or per binding partner.
